The source of these data is US20200024362A1 (SHANGHAI BENEMAE PHARMACEUTICAL, published 2020).

Substitutions are numbered along the chain they refer to. Read-outs that look alike come from different tables or passages of the source.

Usually koff stands for the rate constant with which the complex falls apart. High values mean fast dissociation, low ones slow dissociation. One may read the kon as the rate constant with which the complex forms. Low readings indicate slower complex formation, high ones faster complex formation. Broadly, the Kd is the equilibrium constant for the complex coming apart. A lower Kd goes with tighter binding.

In experiment [1] the target is T1, human coagulation factor XI (human, UniProt P03951 19-625).
T1 construct: Bought from Enzyme Research Laboratory (HFXI 1111); also called FXI; human FXI
As to the kind of experiment: capture ELISA screening of hybridomas from animals immunized with human FXI.

Experiment [2] deals with T1, human coagulation factor XI. As to the kind of experiment: SPR (Biacore T200), antibody captured on anti-human IgG CM5 chip, FXI 0.063 to 6.25 nM flowed. For orientation: SPR reads the build-up and loss of mass on a sensor chip optically.
Protocol: (§1) The interaction of the antibodies with FXI was determined by the SPR assay on a Biacore T200 system (Biacore, GE Healthcare). Briefly, human IgG capture antibody (Biacore, GE Healthcare) was pre-immobilized on a CM5 sensor chip (GE Healthcare), and test antibodies were captured by flowing through the chip. The final amount of the test antibodies captured was adjusted to an equal amount of 15 response units (RU) by adjusting the capture time. Then, antigen FXI was allowed to flow through the chip for 180 s for association and then for 1200 s for dissociation. […] The data were collected and the affinities between the test antibodies and FXI were analyzed using the Biacore Evaluation Software.
(§2) The test antibodies were captured on a sensor chip, and then indicated concentrations of FXI were allowed to flow through the chip.
Experiment [3] has the same target. In words: SPR (Biacore T200), antibody captured on anti-human IgG CM5 chip, FXI flowed.
Protocol: (§3) The affinity of anti-FXI/FXIa antibodies to FXI/FXIa were determined using surface plasmon resonance (SPR) technology performed on the BIAcore T200 instrument. […] These antibodies were captured onto a Biacore CM5 sensor chip that was pre-immobilized with an anti-human IgG antibody.
(§4) Then different concentrations of the purified antigen FXI or FXIa (0.005-1 μg/mL) were allowed to flow through the CM5 chip for 180 s for association with the anti-FXI/FXIa antibody, followed by a time of 1800 s for dissociation. The binding data was collected and the affinity between FXI/FXIa and the test antibodies was analyzed using the Biacore Evaluation Software provided by GE Healthcare.
Experiment [4] concerns the target T2, human factor XIa (human, UniProt P03951 19-387; P03951 388-625).
T2 construct: also called FXIa
In words: SPR, antibody captured on sensor chip, FXIa flowed.

The target in experiment [5] is T2, human factor XIa. As to the kind of experiment: cell-based or functional assay.
In experiment [6] the target is T2, human factor XIa. In words: SPR (Biacore T200), antibody captured on anti-human IgG CM5 chip, FXIa flowed.
Protocol: as §3, §4
In experiment [7] the target is T1, human coagulation factor XI. In words: SPR, antibody captured on sensor chip, FXI flowed.
Protocol: as §1, §2
Experiment [8] concerns the target T2, human factor XIa. As to the kind of experiment: SPR (Biacore T200), antibody captured on sensor chip, FXIa 0.063 to 6.25 nM flowed.
In experiment [9] the target is T2, human factor XIa. As to the kind of experiment: apparent Ki, inhibition of FXIa (5 nM) cleavage of chromogenic substrate S-2366.
The target of experiment [10] is T2, human factor XIa. In words: cell-based or functional assay. The source holds these as a separate data set.
The target in experiment [11] is T2, human factor XIa. In words: SPR (Biacore T200), antibody captured on sensor chip, FXIa 0.063 to 6.25 nM flowed. This is another data set of the same source.
For experiment [12], the target named is T1, human coagulation factor XI. In words: SPR (Biacore T200), antibody captured on anti-human IgG CM5 chip, FXI 0.063 to 6.25 nM flowed. This is another data set of the same source.
Protocol: as §1, §2

B1: 7C9 (antibody, V domains shown)
VH: QIQLVQSGPELKKPGETVKISCKASGYIFTDYGMNWVKQAPGKGLKWMGWINTYTGEPTYADDFKGRFVFSLETSASTAYLQINNLKNEDTATFFCARRRMGYAVDYWGQGTSVTVSS
VL: DIQMTQSPSSLSASLGERVSLTCRASQDIDIRLNWLRQEPDGTIKRLIYATSSLDSGVPKRFSGSRSGSDYSLTISSLESEDFVDYYCLQYASSPFTFGSGTKLEIK
notes: Hybridoma monoclonal antibody
B1: the binding result in experiment [1] was “binds”.

B2: 34F8 (antibody, V domains shown)
VH: QVQLKESGPGLVQPSQTLSLTCTVSGFSLTTYHVHWVRQPPGKGLEWMGIMWRDGDTSYNSVLKSRLSISRDISKSQVFLKMSSLQTEDTATYFCARGGTLTTPFTYWGQGTLVTVSS
VL: DVVLTQTPGSLSVTLGQQVSISCRSSQSLESRDGNTYLEWYLQKPGQSPQVLLYGVSNRLSGVPDRFLGRGSGADFTLKISRVEPEDLGVYYCFQATHGPFTFGSGTKLEMK
notes: Hybridoma monoclonal antibody
For the molecule B2, the binding result in [1] is recorded as “binds”.

B3: h-19F6 (antibody, V domains shown)
VH: EVQLVESGGGLVQPGRSLRLSCTASGFTFSKYAMSWVRQAPGKGLEWVSAINYDGSTTYYADSVKGRFTLSRDNSKNTLYLQMNSLRAEDTAVYYCARHPFNNFGIWFAYWGQGTLVTVS
VL: QFQLTQPSSVSASVGDRVTITCERSSGDIGDSYVSWYQQKPGQPPKNVIYADDQRPSGVPDRFSGSIDGSGNSASLTISSLQAEDAADYFCQSYDSNIDFNPVFGGGTKLEVK
notes: Humanized rat antibody in human IgG4 form (variable regions linked to human IgG4 Fc domain, expressed in CHO cells); also called humanized 19F6
Regarding B3, the off-rate (koff) was determined as 5.88e-05 s⁻¹ in experiment [2] and 8.36e-05 s⁻¹ in the experiment with human factor XIa [8]. Further, the association rate constant (kon) in experiment [2] was determined as 2.65e+06 M⁻¹ s⁻¹; with human factor XIa [8], 3.24e+06 M⁻¹ s⁻¹. Further, the Kd in experiment [3] was found to be 22.2 pM; in the experiment with human factor XIa [4], 26 pM; in the experiment with human factor XIa [6] it was 25.8 pM; in experiment [7], 22 pM. The “IC50 (read off the curve)” value in the experiment with human factor XIa [5] is around 3000 pM. Also, the Ki with human factor XIa [9] came out at 670 pM.

B4: 42A5 (antibody, V domains shown)
VH: QVQLKESGPGLVQPSQTLSLTCTVSGFSLTSYHLHWIRQPPGKGLEWMGLMWRDGDTSYNSRLKSRLSITRDTSKSQVFLKMSGLQTEDTATYYCARGMTLATPFLYWGQGTLVTVSS
VL: DVVLTQTPGSLSVTLGDPASMSCRSSQSLESSDGNTYLEWYLQKSGQSPQLLIYGVSNRFSGVPDRFAGSGSGTDFTLKISRVEPEDLGVYYCFQATRDPFTFGSGTKLEIN
notes: Hybridoma monoclonal antibody
As for B4, the binding result in experiment [1] is “binds”.

B5: 13F4 (antibody, V domains shown)
VH: EVQLKESGPGLVQPSQTLSLTCTVSGFSLTDYSVHWVRQPPGKGLEWMGVMWSGGSTAYNPALTSRLTISRDTSKSQVFLKMNSLQTEDTAIYYCTRAPFNNWGNWLPYWGQGTLVTVSS
VL: QFTLTQPKSVSGSLRSTITIPCERSSGDIGDSYVSWYQQHLGRPPINVIYADDQRPSEVSARFSGSIDSSSNSASLTITNLQMDDEADYFCQSYDTYMDVVFGGGTKLNVL
notes: Hybridoma monoclonal antibody
On to B5, for which, in [1], the binding result was “binds”.

B6: 3G12 (antibody, V domains shown)
VH: QVTLKESGPGILQPSQTLSLTCSFSGFSLNTPGMGVSWIRQPSGKGLEWLAHIYWDDDKRFNPSLKSRLTISKDTSRDQVFLMITSVDTADSATYFCARKGRGPFTYWGQGTLVTVSS
VL: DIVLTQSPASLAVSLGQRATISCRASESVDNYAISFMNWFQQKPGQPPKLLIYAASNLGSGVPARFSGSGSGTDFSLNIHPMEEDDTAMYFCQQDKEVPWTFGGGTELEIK
notes: Hybridoma monoclonal antibody
For B6, the binding result in experiment [1] is listed as “binds”.

B7: 5B2 (antibody, V domains shown)
VH: B6 VH with P32S, F61Y, N62K, D78N, S92T, F96Y, A98V, T106A, Y107N, S118A
VL: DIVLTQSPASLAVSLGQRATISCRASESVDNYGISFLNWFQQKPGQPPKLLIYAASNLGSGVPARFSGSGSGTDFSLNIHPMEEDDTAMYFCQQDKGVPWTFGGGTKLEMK
notes: Hybridoma monoclonal antibody
In the case of B7, the binding result in [1] is given as “binds”.

B8: 21F12 (antibody, V domains shown)
VH: EVQLVESGGGLVQPGRSLKLSCVASGFTFNNHWMTWIRQAPGKGLEWVASITDNGGSTYYPDSVKGRFTISRDNAKSTLYLHMNSLRSEDTATYYCTRDRYDSDGYYYVRYYVVDAWGQGASVTVSS
VL: DVRMTQSPASLSASLGETVNIECLASEDIYSDLAWYQQKPGKSPQLLIYNANSLQNGVPSRFSGSGSGTQYSLKISTLQSEDVATYFCQQYSNYRRTFGGGTKLEIN
notes: Hybridoma monoclonal antibody
For B8, in experiment [1], the binding result is on record as “binds”.

B9: 42F4 (antibody, V domains shown)
VH: EVQLQESGPGLVKPSQSLSLTCSVTGYSITNHYWGWIRKFPGNKMEWIGHISNSGGTNYNPSLKSRISITRDTSKNQFFLQLKSVTTEDTATYYCTRGSYYYSASGYFDYWGQGVLVTVSS
VL: B8 VL with V2I, Y30H, S76T, T77S, S92T, R95P, R96N, G100A
notes: Hybridoma monoclonal antibody
For B9, the binding result in experiment [1] is on record as “binds”.

B10: h-42A5 (antibody, V domains shown)
VH: QVTLKESGPVLVKPTETLTLTCTVSGFSLTSYHLHWIRQPPGKALEWMGLMWRDGDTSYNSRLKSRLTISRDTSKSQVVLTMTNMDPVDTATYYCARGMTLATPFLYWGQGTLVTVSS
VL: DVVLTQTPLSLSVTPGQPASISCRSSQSLESSDGNTYLEWYLQKPGQSPQLLIYGVSNRFSGVPDRFSGSGSGTDFTLKISRVEAEDLGVYYCFQATRDPFTFGQGTKLEIKR
notes: Humanized antibody in human IgG4 form; also called humanized 42A5
Consider B10, for which the “IC50 (read off the curve)” value with human factor XIa [10] was around 5000 pM. Further, the figures for the off-rate (koff) (in the experiment with human factor XIa [11]; in [12]) were 1.38e-05 s⁻¹ and 4.07e-05 s⁻¹, respectively. In addition, the kon with human factor XIa [11] worked out at 1.69e+06 M⁻¹ s⁻¹; in experiment [12], 1.14e+06 M⁻¹ s⁻¹. The Kd in experiment [3] came to 35.7 pM; with human factor XIa [4], 8.1 pM; in the experiment with human factor XIa [6] it was 8.14 pM; in experiment [7] it was 36 pM. For the same molecule, in the experiment with human factor XIa [9], the Ki is 1430 pM.

B11: h-34F8 (antibody, V domains shown)
VH: QVQLQESGPGLVKPSETLSLTCTVSGFSLTTYHVHWVRQPPGKGLEWIGIMWRDGDTYYNSSLKSRVTISRDTSKNQVSLKLSSVTAADTAVYFCARGGTLTTPFTYWGQGTLVTVSS
VL: B10 VL with S12P, Q17E, S32R, L51V, I53L, F60L, L88V, R98H, D99G
notes: Humanized antibody in human IgG4 form; also called humanized 34F8
For B11, the Kd was 19.5 pM in [3] and 3.85 pM with human factor XIa [6]. The Ki with human factor XIa [9] is 2080 pM.

B12: 38E4 (antibody, V domains shown)
VH: EVQLQESGPGLVKPSQSLSLTCSVSGFSITNNYWGWIRKFPRNKMEWIGHISYSGSTNYNPSLKSRISITRDSSKSQFFLQLNSLTTEDTATYYCARGSYYYSASGYFDYWGQGITVTVSS
VL: DIRMTQSPASLSASLGETVNIECLASEDIYSDLAWYQQKPGKSPQLLIYNANSVQNGVPSRFSGSGSGTQYSLKINSLQSEDVATYFCQQFNSYPNTFGAGTKLEIK
notes: Hybridoma monoclonal antibody
With B12, the binding result in experiment [1] is reported as “binds”.

B13: 45H1 (antibody, V domains shown)
VH: B9 VH with T21I, N31T, H32T, G56S, I69V, K75T, K83N, T96A, Q113H, L116M
VL: B12 VL with E22G, S53N, V54L, F91Y
notes: Hybridoma monoclonal antibody
On to B13, for which the binding result in experiment [1] was “binds”.

B14: 19F6 (antibody, V domains shown)
VH: EVQLVESGGGLVQPGRSLRLSCTASGFTFSKYVMAWVRQAPTKGLEWVASINYDGSTTYYRDSVQGRFTLSRDNAKTTLYLQMDSLRSEDTATYYCARHPFNNFGIWFAYWGQGTLVTVSS
VL: QFTLTQPKSVSGSLRSTITIPCERSSGDIGDSYVSWYQQHLGRPPINVIYADDQRPSEVSDRFSGSIDTSSNSASLTITNLQMDDAADYFCQSYDSNIDFNPVFGGGTKLTVL
notes: Hybridoma monoclonal antibody (rat, immunized with human FXI)
Turning to B14, the binding result in [1] was “binds”.
